Measurements from paper PMC2794542.

Molecular target: full length LRRK2, FLAG-tagged and V5-tagged copies co-expressed (human) (UniProt Q5S007)
Experiment: co-IP; 293T cells co-transfected with FLAG- and V5-LRRK2; gel filtration fractions 20-23 (α-complex, ~600 kDa) pooled, immunoprecipitated with anti-FLAG, blotted with anti-FLAG and anti-V5, densitometry
Settings: remark: other sources report otherwise

ratio of FLAG-LRRK2 to V5-LRRK2 in the anti-FLAG IP: 1.87
stoichiometry N: 2
Substance: full length LRRK2, FLAG-tagged and V5-tagged copies co-expressed, Q5S007 1-2527
